Measurements: patent US20170165338A1

Molecular target: HLA-A*02 (human)
Assay: UV-exchange b2m ELISA

Row | Binder | peptide exchange yield [%]
1 | AIVKEIVNI | 20 to 49
2 | ALNPELVQA | 20 to 49
3 | SQIPAQPSV | 20 to 49
4 | SLFPDSLIV | 20 to 49
5 | SVVPDVRSV | 20 to 49
6 | KLIFSVEAV | 50 to 75
7 | TLLQRLTEV | 50 to 75
8 | SLSNRLYYL | 50 to 75
9 | FLAVGLVDV | 50 to 75
10 | LLLGDSALYL | 50 to 75
11 | VLHSKFWVV | 50 to 75
12 | FLTAINYLL | 50 to 75
13 | YTLREVDTV | 20 to 49
14 | TLFGYSVVL | 50 to 75
15 | AVIKFLELL | 50 to 75
16 | AVGPVHNSV | 20 to 49
17 | TLIDEQDIPLV | 50 to 75
18 | TVVTRLDEI | 20 to 49
19 | VTFKEYVTV | 20 to 49
20 | KLYEADFVL | 20 to 49
21 | NALDKVLSV | 50 to 75
22 | FIFDEAEKL | < 20
23 | GQASYFYVA | 20 to 49
24 | ALCPRIHEV | > 75
25 | VLNDILVRA | 50 to 75
26 | SVDSHFQEV | 20 to 49
27 | TIYKDFVYI | 20 to 49

Row | Binder | peptide exchange yield [%]
28 | AQADHLPQL | 20 to 49
29 | QLAPVFQRV | 20 to 49
30 | FLQDLEQRL | 50 to 75
31 | GLLFSLRSV | > 75
32 | LLLPAVPVGA | 50 to 75
33 | GLLGSLFFL | > 75
34 | LLVSHLYLV | 20 to 49
35 | RLFPDFFTRVAL | 20 to 49
36 | YLLQSVNQLLL | 20 to 49
37 | ALLGMIIVGV | < 20
38 | ALADFMLSL | 50 to 75
39 | VLLDIQEVFQI | 50 to 75
40 | YLVSEIFKA | 50 to 75
41 | ALISWQPPRA | 50 to 75
42 | ALLGTKILL | 50 to 75
43 | FINDSIVYL | 50 to 75
44 | LLVPTSGIYFV | 50 to 75
45 | ILLKNLVTI | 20 to 49
46 | SLDPSVTHL | 20 to 49
47 | FLLGVSKEV | 50 to 75
48 | AIVDLIHDI | 20 to 49
49 | SLGKFTFDV | > 75
50 | FLERGLESA | 20 to 49
51 | QLIQTLHAV | 50 to 75
52 | SLDPDTLPAV | 20 to 49
53 | KMPDVELFV | 50 to 75
54 | QLWQFLVTL | 50 to 75
